Assay: soluble on expression in E. coli; label from the status in PepcDB or PDB records

| Sequence | soluble on expression in E. coli |
| --- | --- |
| YANRESLIKRYTLKVLEQIAWLPEAQSLDEAKVQEALEDASQTIDSYLGGRYVLPLKTVPAVLERHCCYIARYFLEKNRATDQARQDYEDTIRFLEKVASGAISLGLSDDDETVESENGAMMESAGSVWGRNT | not soluble |
| MTATPLYCAEPARLDTARRLCERFSLPLIKQRPADGYWLELGSERLELLTTGKHGAVYAEFVEGAARHRREQGGGRGQPVAKAVGLKGAKDLPHVADATAGLGRDSFVLATLGCRVTMVERSPVAAALLADALERAQRDETTRDIAARMTLVHANSRNWLAGLTEAQRPDVVFVDPMFPDTDKKSAAAKKDMQAFQQVIGDDMDSAELLAAAIAAARVRVVVKRPRLGAAIAGVKPSAVLDGKSTRFDLYVIKALASGLEHHHHHH | soluble |
| MRWNICVVGAGKIGQMIAALLKTSSNYSVTVADHDLAALAVLNRMGVATKQVDAKDEAGLAKALGGFDAVISAAPFFLTPIIAKAAKAAGAHYFDLTEDVAATNAVRALAEDSQT | soluble |
| MMTSAFAPSEQSLVASPQDLPAVDVAIVGAGIVGLSLACALRNSGLAIALIEATPYRRENTKGQAYALHQVSRYFFEEIGVWDKLMPHVQPFEVVQLSDERFPLTVHFSPADLGTEALGYVGEHSAIAETLQSVLQSAGNVTFYCPWRVVTNEVHGDRAQLTLISGDPGEPKVAHLAARLVVAADGGKSPLRQQMGIEPKGWQYPQSCVVATLDVAHPQPVIAYERFWPTGPMGVLPLPRNRYRVVWTLPHPEAEAVAALDDRSFLATLQPYLDPQMAEITAVGDRFVFPAQFMQVNSYAADRFVVIGDAAHRCHPVGGQGLNLGLRDVWNLAQQILASPLEEIGDRRHLMHFHRQRWWQNVLTLAFTDFLNRLFSNTGWPLVAVRRCGLGLLCLLPPLKRLLLRFMAGLLLPLPGDREFPRGRLEHHHHHH | not soluble |
| MGSDKIHHHHHHAVQNTITIRSRGAKVYNKNGNAIVDARDKNIVLKEGTVAEYYGEPKYMVWRGHKKASFYNIGGNRYLLGYNVASLNDKGTLSIYRDSYIYDKTGKRVEKNTVLRKGTAINYVDKLNEKIETEKNLPKFYYYNMAIQRTHEGMLWVKYSVLSVKYHIINGKEYYKIANNKYIRATNIGYINGRQLFTTEATVTMGKATTKDGKYYARNMNGKITKTILPYKPGQKVVVDRSFQHSSKSFWRIKGTNYYIFGPDIKKFPIQALRR | not soluble |
| GGVVVTPRAPYIHDLDGLPMAWDLVEWPIYTYRAKNDARLAIVSSSRGCKQQCSFCSQQLFWSQSWRARSAENFVAELEMLHTVHGVQVAMLSDEIPTFDRQRWVRILDLMIERQVPVKLLMETRVDDILRDADIMDRYREGGVEHIYVGVEAGTQETLDLFKKDTQVEQSKQAIDLINNADIVSETSFVLGMPDDTPESIAQTIELAKHYNPDMAFFLAIAPWPYAELYPQLEEYVATKDYRKYNLVEPVIKPKHMTLEELERQLGKASQQFFMH | not soluble |
| MKKFSGIIPPVSSTFHRDGTLDKKAMREVADFLINKGVDGLFYLGTGGEFSQMNTAQRMALAEEAVTIVDGRVPVLIGVGSPSTDEAVKLAQHAQAYGADGIVAINPYYWKVAPRNLDDYYQQIARSVTLPVILYNFPDLTGQDLTPETVTRLALQNENIVGIKDTIDSVGHLRTMINTVKSVRPSFSVFCGYDDHLLNTMLLGGDGAITASANFAPELSVGIYRAWREGDLATAATLNKKLLQLPAIYALETPFVSLIKYSMQCVGLPVETYCLPPILEASEEAKDKVHVLLTAQGILPV | not soluble |
| MGSDKIHHHHHHMVELKAPLTTLWRGKDAFEEVKTLQGEVFRELETRRTLRFELDGKSYFLKWHKGTSLKEIVKNLISLRMPVLGADREWHAIHRLHELGVDTMHGVGFGEKGVNPLTRTSFIITEDLTPTISLEDYCADWAVNPPDAQVKWMIIKRVATMVRKMHAGGINHRDCYICHFLLHLPFTGREEDLKISVIDLHRAQIRQHVPLRWRDKDLIGLYFSSMNIGLTQRDIFRFMREYFSLPLREILQKESGLIHQADVKAARIKERTIRKNL | not soluble |
| MKFLFYLSADNLEIARKEVLVLAERYGWVEDYQFEERLLLLDYAGEKFFERLAYTNEVTKIYDICSVSELEQVFSEIPVYDRLCCVRVKGGKGKTALERKLGALLWKRGAKVSVSNPEIVYKVYIQDDKCYVGLLEFERDTRQFFLRRPDRRPFLMPSAIKPKLARALVNLTGVLEGETLLDPMCGTGSFLIEAGLMGINPIGIDFIEKIVRGCRVNLEYYGIEGSVLLGDAKNLPLRDESVRGIATDYPYLRSTKAAGTLDELYSKTSEEFERVLKKGGRAAIVTNIDVESFFSNFEIEMKTEERVHGSLTRRIYLLRR | not soluble |
| MEKETLFIAFSTQKGGAGKTTLTVLVASYLHYVKGMNVAVVDCDYPQHSIAEMRKRDLKTVMEDEHYKLMAYRQLQRIRKKAYPVAESTAEDAVTKADELLEKMPETDIVFFDLPGTVNSTGVLNTLVNMDYVFSPIAADRVVMESTLRFASRLNDTLIATGKTNIKGLYLLWNMVDGREKSELYKVYEQVIGELGLKVLKTFLPDSKRFRRELTGGHRALFRSTLFPADGTLVKGSNLKEITEELLSIIRK | not soluble |
| MDWKITIFTYNLAMKASDSEAVHNMLNGMIDDHTHLVAIGLQEVAHSETIGGAVLTWATTIASWMNTNGRMVLLAKTFQATNQVLIFGRKQLIGQIKRIDYRFQRNTMGGLTGHKGSIGVRLQLASPYSIVFVDSHFIHGPENYGKRVEQYHTNRNCSFPEDKSVRAAFWFGDFNFRVEEDVNTVIRKIKNGTHLELLDTREQLKRALVERDAFIGFHEQPVTFEPTYRVTVGTTEQDGKRVPSWTDRILYKGDGITGLSYTNNKKAVASDHLPVVAMFRVTAPAAPKPQWEVIFEHLPTWYTSIPLVGRFQVNELYYKENGSYRDWIGVFPSSINDCTTATNWIYAATCFEQVIEGSKFLACEFNNIPAGNYRLGYFSCHLHCLVGLSKVFQIVEQP | not soluble |
| MSGREFLQKLLDGERVEWKALGEIIQLEKGRQLNKDLLSSSGRYPAYNGGMSYSGFTDSYNYSENKTIISQGGASAGFVNFVTTKFYANAHCYVVLPDTEVVDNRYIYHFLKLNEERLTSCQHGAGIPALRASEITSLKIPIPCPDNPKKSLAIQAEIVRILDAFTELTAELTAELTARKKQYAYYRDRLLTFTTPPYGHPSKGGELFSLFGHPSEGGELFTPYGHSVEERELNSPSLKGWQAQPDGVVPVEWKTLGEVGHFIRGSGIQKSDFKASGVGCIHYGQIHTHYGTWTTETKSFIDPEFANRLKKAKPGDLVIATTSEDDDAVAKAVAWIGTEDVAVSTDAYIFRHTANPKYMSYFFQTDMFQEQKKPYITGTKVRRISGDNLAKILIPIPPLAEQERIVAILDQFDALTNSLTEGLPREIELRQKQYAYYRDLLFSFPKASFGGVPEGRDQFPSFGGVPEGRGGLNALEHHHHHH | not soluble |
| MGKNLSLRQDDAQHALSANTSSAYNSVYDFLRYHDRGDGLTVNGKTSYSIDQAAAQITRENVSWNGTNVFGKSANLTFKFLQSVSSIPSGDTGFVKFNAEQIEQAKLSLQSWSDVANLTFTEVTGNKSANITFGNYTRDASGNLDYGTQAYAYYPGNYQGAGSSWYNYNQSNIRNPGSEEYGRQTFTHEIGHALGLAHPGEYNAGEGDPSYNDAVYAEDSYQFSIMSFWGENETGADYNGHYGGAPMIDDIAAIQRLYGANMTTRTGDSVYGFNSNTDRDFYTATDSSKALIFSVWDAGGTDTFDFSGYSNNQRINLNEGSFSDVGGLKGNVSIAHGVTIENAIGGSGNDILVGNSADNILQGGAGNDVLYGGAGADTLYGGAGRDTFVYGSGQDSTVAAYDWIADFQKGIDKIDLSAFRNEGQLSFVQDQFTGKGQEVMLQWDAANSITNLWLHEAGHSSVDFLVRIVGQAAQSDIIV | soluble |
| CVIFPVEIDVSQTIIRDCQVDKQTRELVYINKIMNTQLTKPVLMMFNISGPIRSVTRKNNNLRDRIKSKVDEQFDQLERDYSDQMDGFHDSIKYFKDEHYSVSCQNGSVLKSKFAKILKSHDYTDKKSIEAYEKYCLPKLVDERNDYYVAVCVLKPGFENGSNQVLSFEYNPIGNKVIVPFAHEINDTGLYEYDVVAYVDSVQFDGEQFEEFVQSLILPSSFKNSEKVLYYNEASKNKSMIYKALEFTTESSWGKSEKYNWKIFCNGFIYDKKSKVLYVKLHNVTSALNKNVILNTIKA | soluble |
| MKKIHMIPAALLIGSLALVSCAPSQPTQNAQTVSSVMTETPTYTSSSRSVESTAGTIAASEEATMTLLENSSGDPGSDSGGARYSLNSLKVSEQAAANAVLKAVLNDVSYQEFADSSYLEITGTPSADGTWGISFGGPSESASVEFSDGSISFSPVDMTVPATRLPQMGAFYETLTEEQLGMLETGLAVSTVDSSQQEMLLDLVSNSIGLADTETTATAISKIRATLSETYLFGTPDGLTLALSGPHVDFEVSHQGSTAKITYRDPSTDTLTAEDRVDTASVAAAPPEVVLEHHHHHH | not soluble |
| MCPCPHSQAQGETDGEAEWHNAALDFTHAMSYGDYLKLDKVLDAQFPLSPDHNEMLFIIQHQTSELWMKLMLHELRAAREHVKSGKLGPALKMLARVSRIFDQLVHAWAVLATMTPTEYNTIRPYLGQSSGFQSYQYREIEFILGNKNATLLKPHAHRAELLAALEQALHTPSLYDEAIRLMAAQGLPVSQERLARDAAAGTCYEASVEAAWRQVYQAPERYWDLYQLAEKLIDLEDSFRQWRFRHVTTVERIIGFKPGTGGTEGVGYLRSMLDTILFPELWRLRSNL | not soluble |
| MDKEETKTKPRLLRYEEKKYEDVKPLETQPAEIAEKETLEYKTVRTFSESLKSEKTEDYLRESIIQQHMVSPEPASLKEKGKSRRKKDQTHACPNVRKARPVSYDRTEPKDDDVIRNIIRLREKLGWQTILPQHSLKYGSSKIAIQKITLKKPLEDDGEFVYCLPRKSPKSLYNPYDLQVINIVGSVKE | soluble |
| MGSDKIHHHHHHMKQFQIVGIGNALVDVLSHCDDAFLAENGIAKGIMQLIDMGRAVDLYGRIGPAQEISGGSAANTIAGIAQLGGRTAYVGKVCDDQLGAIFAHDLRAQGAVYETPMAPKGGAQETGRCIILVSPDGERSMNTCLGWSEFLTPDDIDEAQMASTEWIYLEGYRFDGPESHAAFAKAIAACRGAGGRVSLTLSDPFCVERHRDAFRRMIREDVDLLFANRAEILSMYRTEDFGAALKAAAAEVAIVACTESEKGAHILADGQHWHVPALPTQIVDATGAGDLFAGAFLWGLTHGHGYETAGRMGCIAASEVISHLGARPEADLRALFRAQGVL | not soluble |
| MHLNNLNNFNNLENNGEYHCSGPIIKKPFRHIALTVPSSDITNFNEIFYVEPQYIAQAIRLTNTFQGAIDPLTLNFNFEKALQIANGLPNAGVTGTINQSVIHQTIEVSVMISQIKEIIRSVLGLVINSANFWNSVVSAITNTFTNLEPQVDENWIVWRNLSATQTSYFYKILFSIQNEDTGRFMAILPIAFEITVDVQKQQLLFITIKDSARYEVKMKALTVVQALDSYNAPIIDVFNVRNYSLHRPNHNILQNLNVNPIKS | soluble |
